This note sets out measurements from patent EP4676952A2 (dated 2026).

The target of test [1] is T1, human complement component 2 (C2), purified protein (human, UniProt P06681 21-752).
T1 construct: mature; Purified human C2 (Complement Tech); called 'Full-length C2' in the ELISA; In the serum-based functional assays the C2 is that of normal human serum; also called human C2; full-length C2
T1 sequence (looked up): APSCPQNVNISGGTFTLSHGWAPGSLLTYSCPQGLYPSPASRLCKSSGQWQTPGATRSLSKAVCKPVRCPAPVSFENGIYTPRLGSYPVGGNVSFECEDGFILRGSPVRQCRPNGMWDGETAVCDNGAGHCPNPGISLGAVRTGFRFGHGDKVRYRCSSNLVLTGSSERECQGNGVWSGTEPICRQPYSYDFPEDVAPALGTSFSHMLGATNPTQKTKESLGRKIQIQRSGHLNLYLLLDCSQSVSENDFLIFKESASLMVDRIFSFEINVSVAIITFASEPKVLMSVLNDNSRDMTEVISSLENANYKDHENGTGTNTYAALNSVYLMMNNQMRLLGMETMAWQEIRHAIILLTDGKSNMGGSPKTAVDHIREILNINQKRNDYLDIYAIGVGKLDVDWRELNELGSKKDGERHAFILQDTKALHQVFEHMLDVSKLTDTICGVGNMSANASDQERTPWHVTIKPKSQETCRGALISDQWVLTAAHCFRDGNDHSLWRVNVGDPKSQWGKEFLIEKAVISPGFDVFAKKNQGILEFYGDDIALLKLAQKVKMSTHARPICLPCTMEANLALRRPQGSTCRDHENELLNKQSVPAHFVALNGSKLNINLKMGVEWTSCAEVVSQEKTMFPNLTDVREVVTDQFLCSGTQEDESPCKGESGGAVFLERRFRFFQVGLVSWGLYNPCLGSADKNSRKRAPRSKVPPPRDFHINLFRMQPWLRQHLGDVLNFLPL
Description: SPR, Biacore T200, nanobody immobilised on a CM5 chip, human C2 2.97 to 248 nM as analyte, 1:1 Langmuir model.

Test [2] addresses T1, human complement component 2 (C2), …. Description: cell-based or functional assay.
The target of the next test is T2, C2b fragment of human C2 (human, UniProt P06681 21-243).
T2 construct: domain: C2b; also called smaller fragment C2b
T2 sequence (looked up): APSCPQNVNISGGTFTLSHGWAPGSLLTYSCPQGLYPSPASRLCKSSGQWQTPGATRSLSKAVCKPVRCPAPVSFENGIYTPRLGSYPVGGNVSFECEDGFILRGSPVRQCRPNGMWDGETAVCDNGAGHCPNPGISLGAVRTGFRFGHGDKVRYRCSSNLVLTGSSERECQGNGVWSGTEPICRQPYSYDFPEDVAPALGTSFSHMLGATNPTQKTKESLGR
Description: pull-down of C1s-cleaved C2 with His-tagged nanobody on cobalt resin, western blot with goat anti-C2 polyclonal antibody. A general note: Immunoblotting shows a protein as a band on a membrane.

Test [3] addresses T3, human C2b (small fragment of C2) (human, UniProt P06681).
T3 chain: T1 sequence (looked up)
Description: ELISA. In general terms: In an ELISA, binding on a coated surface is turned into a signal by an enzyme label.

B1: Clone 1B10 C2 nanobody (Nab1B10), monovalent, His-tagged (VHH)
VHH: QVQLQESGGGLVQAGGSLRLSCAASGHTFRSYYMGWFRQAPGKEREFVASISWTGGSTEYADSVKGRFTISRDNAKNTVYLQMNSLKPEDTAAYYCAADYSGDFLLSDLDSWGQGTQVTVSS
notes: Alpaca VHH expressed in E. coli BL21 from the pMES4 vector; single 15 kDa band on SDS-PAGE; also called NablBlO; Nabl BIO; not shown: His tag (monovalent form is 'His-tagged', purified on cobalt resin)
For B1, in test [1], binding was characterised by a dissociation constant (Kd) of 3.03 nM; the koff (usually the rate constant with which the complex falls apart) is 0.000395 s⁻¹; the kon – broadly, a measure of how fast the partners come together – came to 131000 M⁻¹ s⁻¹. In addition, in test [2], the “MicroVue CH50 Eq EIA (C5b-9 generation, classical pathway, normal human serum), EC50” value is 53 nM and the “classical complement pathway-mediated hemolytic assay (EShA, normal human serum), IC50” value was around 3 nM. Further, the binding result with C2b fragment of human C2 was “no binding”. Further, the binding result in test [3] is “no binding”.
